Assay: Galactose-1-phosphate uridylyltransferase (GalT) activity of the enzyme liquid
Type: biochemical, E. coli
Conditions: galactose-1-phosphate uridylyltransferase activity of purified enzyme liquid, method by Takeda et al.
Method: E. coli (JM109 strain) (from Takara Bio) was transformed with a pTrc-GalT plasmid (JP-A-2002-335988) in which a gene encoding E. coli-derived GalT has been inserted. The transformed cells were inoculated to a 2×YT medium (50 mL) containing 100 μg/mL ampicillin, followed by shake culturing at 37° C. When the number of the cells reached 1×10^8 cells/mL, IPTG was added to the culture so as to adjust the final concentration to 1 mM, and shake culture was continued for further five hours. After completion of culturing, cells were collected through centrifugation (9,000×g, 20 min) and suspended in a buffer (50 mM HEPES-NaOH (pH: 8.0), 0.1 mM zinc sulfate, 10 mM 2-mercaptoethanol, and 50 mM sodium chloride) […]). The cells were disrupted through ultrasonication, and the product was centrifuged (20,000×g, 10 min), to thereby remove cell residues.
The thus-produced fraction was employed as an enzyme liquid in the following synthesis reactions. The galactose-1-phosphate uridylyltransferase (GalT) activity of the enzyme liquid was determined (Table 1). In the present invention, GalT activity was determined through a method by Takeda et al. (JP-A-2002-335988). The thus-yielded galactose-1-phosphate uridylyltransferase is identical to hexose-1-phosphate uridylyltransferase and catalyzes the same reaction (E.C.2.7.7.12).

B1: GalT: E. coli-derived galactose-1-phosphate uridylyltransferase, purified enzyme liquid (protein, UniProt P09148 1-348, looked up)
Galactose-1-phosphate …: MTQFNPVDHPHRRYNPLTGQWILVSPHRAKRPWQGAQETPAKQVLPAHDPDCFLCAGNVRVTGDKNPDYTGTYVFTNDFAALMSDTPDAPESHDPLMRCQSARGTSRVICFSPDHSKTLPELSVAALTEIVKTWQEQTAELGKTYPWVQVFENKGAAMGCSNPHPHGQIWANSFLPNEAEREDRLQKEYFAEQKSPMLVDYVQRELADGSRTVVETEHWLAVVPYWAAWPFETLLLPKAHVLRITDLTDAQRSDLALALKKLTSRYDNLFQCSFPYSMGWHGAPFNGEENQHWQLHAHFYPPLLRSATVRKFMVGYEMLAETQRDLTAEQAAERLRAVSDIHFRESGV
B1 showed an Enzymatic activity of 46.7 units/mg protein.

— patent US8148112B2, “Sugar chain containing 4-position halogenated galactose and application thereof” (National University Corporation Hokkaido University, priority 2005, dated 2012)
